From PMC5737872
Where two headings read alike, the source gives them in different places.

Experiments:
Assay in all cases: X-ray crystallography
Nrd1 290-468 wt [1] = biological target: T1, Nrd1 290-468 wt (Saccharomyces cerevisiae, UniProt P53617 290-468)
T1 sequence: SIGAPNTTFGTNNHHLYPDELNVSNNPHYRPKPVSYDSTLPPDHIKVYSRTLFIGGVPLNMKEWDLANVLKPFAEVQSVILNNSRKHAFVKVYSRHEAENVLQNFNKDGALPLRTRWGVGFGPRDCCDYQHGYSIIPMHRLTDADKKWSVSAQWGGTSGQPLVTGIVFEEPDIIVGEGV

Nrd1 290-468 wt [2] = biological target: T1, Nrd1 290-468 wt; remark: listed apart in the source
Nrd1 290-468 wt [3] = biological target: T1, Nrd1 290-468 wt; remark: listed apart in the source

B1: GUAA (ssRNA)
RNA: GUAA
Nrd1 290-468 wt [1]
  binding result: binds

B2: CGUAAA (ssRNA)
RNA: CGUAAA
Nrd1 290-468 wt [2]
  binding result: binds

B3: UUAGUAAUCC (ssRNA)
RNA: UUAGUAAUCC
Nrd1 290-468 wt [3]
  binding result: binds
